Target: mouse soluble recombinant SLLP1 (mouse) (UniProt Q9D9X8)
Assay: SPR

UniProt Q9D9X8, sequence (Q9D9X8 95-221): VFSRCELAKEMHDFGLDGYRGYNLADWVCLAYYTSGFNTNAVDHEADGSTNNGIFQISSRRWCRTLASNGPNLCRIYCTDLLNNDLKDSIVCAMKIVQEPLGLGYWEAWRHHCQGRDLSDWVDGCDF

Kd: 320 pM
Substance: recombinant mouse SAS1B (V2), full length doublet (~51, ~50 kD) (natural protein)

Source: paper PMC3307385
